# Reference: patent US20200317779A1
# Legend:
# [1] = target: recombinant cynomolgus monkey CD3ε/δ heterodimer (cynomolgus monkey) (UniProt Q95LI5); experiment: ELISA, coated CD3ε/δ
# [2] = target: recombinant human CD3ε/δ heterodimer (human) (UniProt P07766); experiment: ELISA, coated CD3ε/δ
# [3] = target: recombinant cynomolgus monkey CD3ε/δ heterodimer (cynomolgus monkey) (UniProt Q95LI5); experiment: BLI (Octet), antigen on anti-Penta His sensor, antibody 50 nM
# [4] = target: recombinant human CD3ε/δ heterodimer (human) (UniProt P07766); experiment: as above
# recombinant cynomolgus monkey CD3ε/δ heterodimer (cynomolgus monkey), sequence (Q95LI5 22-117, stated change not applied, chain 1 of 2): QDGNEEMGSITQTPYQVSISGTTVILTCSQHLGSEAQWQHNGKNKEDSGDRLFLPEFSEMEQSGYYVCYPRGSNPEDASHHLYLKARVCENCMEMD
# recombinant cynomolgus monkey CD3ε/δ heterodimer (cynomolgus monkey), sequence (Q95LI8 22-105, stated change not applied, chain 2 of 2, further chain): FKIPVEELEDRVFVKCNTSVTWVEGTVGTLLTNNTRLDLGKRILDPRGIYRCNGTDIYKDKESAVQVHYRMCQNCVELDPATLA
# recombinant human CD3ε/δ heterodimer (human), sequence (P07766 23-126, stated change not applied, chain 1 of 2): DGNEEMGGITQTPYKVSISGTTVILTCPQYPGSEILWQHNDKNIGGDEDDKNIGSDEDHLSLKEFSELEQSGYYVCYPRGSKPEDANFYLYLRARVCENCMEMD
# recombinant human CD3ε/δ heterodimer (human), sequence (P04234 22-105, stated change not applied, chain 2 of 2, further chain): as the sequence (Q95LI8 22-105, stated change not applied, chain 2 of 2, further chain) above, with V5I, K15N, V20I, T32S, N33D, N34I, A64T, N74S, L83V counted along it
Binder,Absorbance (450 nm) [1],Absorbance (450 nm) [2],Kd [3] [pM],koff [3] [s⁻¹],kon [3] [M⁻¹ s⁻¹],Kd [4] [pM],koff [4] [s⁻¹],kon [4] [M⁻¹ s⁻¹]
"B07 (antibody, human IgG1, lambda, L234A L235A, V domains shown) VH: EVQLVESGGGLVQPGGSLKLSCAASGFTFNTYAMNWVRQASGKGLEWVGRIRSKYNNYATYYADSVKDRFTISRDDSKNTLYLQMNSLKTEDTAVYYCVRHGNFGNSYVSWFAYWGQGTLVTVSS VL: QAVVTQEPSLTVSPGGTVTLTCRSSTGAVTTSNYANWFQQKPGQAPRGLIGGTNKRAPWTPARFSGSLLGGKAALTLSGAQPEDEAEYYCALWYSNLWVFGGGTKLTVLG",2.45,0.718,30900,0.00642,208000,21400,0.00423,198000
"B15 (antibody, human IgG1, lambda, L234A L235A, V domains shown) VH: EVQLVESGGGLVQPGGSLKLSCAASGFTFNTYAMNWVRQASGKGLEWVGRIRSKYNNYATYYADSVKDRFTISRDDSKNTLYLQMNSLKTEDTAVYYCVRHGNFGNSYVSWFAYWGQGTLVTVSS VL: QAVVTQEPSLTVSPGGTVTLTCRSSTGAVTTSNYANWVQQKPGQAPRGLIGGTNKRAPWTPARFSGSLLGGKAALTLSGAQPEDEAEYYCALWYSNLWVFGGGTKLTVLG",3.16,2.71,627,0.000328,523000,521,0.000193,371000
"B16 (antibody, human IgG1, lambda, L234A L235A, V domains shown) VH: EVQLVESGGGLVQPGGSLKLSCAASGFTFNTYAMNWVRQASGKGLEWVGRIRSKYNNYATYYADSVKDRFTISRDDSKNTLYLQMNSLKTEDTAVYYCVRHGNFGNSYVSWFAYWGQGTLVTVSS VL: QAVVTQEPSLTVSPGGTVTLTCRSSTGAVTTSNYANWVQQKPGQAPRGLIGGTNKRAPWTPARFSGSLLGDKAALTLSGAQPEDEAEYYCALWYSNLWVFGGGTKLTVLG",2.93,2.37,660,0.000308,466000,445,0.000144,322000
"B08 (antibody, human IgG1, lambda, L234A L235A, V domains shown) VH: EVQLVESGGGLVQPGGSLKLSCAASGFTFNTYAMNWVRQASGKGLEWVGRIRSKYNNYATYYADSVKDRFTISRDDSKNTLYLQMNSLKTEDTAVYYCVRHGNFGNSYVSWFAYWGQGTLVTVSS VL: QAVVTQEPSLTVSPGGTVTLTCRSSTGAVTTSNYANWFQQKPGQAPRGLIGGTNKRAPWTPARFSGSLLGDKAALTLSGAQPEDEAEYYCALWYSNLWVFGGGTKLTVLG",2.19,0.424,26300,0.00525,199000,27600,0.00407,148000
"A16 (antibody, human IgG1, lambda, L234A L235A, V domains shown) VH: EVQLVESGGGLVQPGGSLKLSCAASGFTFNTYAMNWVRQASGKGLEWVGRIRSKYNNYATYYADSVKDRFTISRDDSKNTAYLQMNSLKTEDTAVYYCVRHGNFGNSYVSWFAYWGQGTLVTVSS VL: QAVVTQEPSLTVSPGGTVTLTCRSSTGAVTTSNYANWVQQKPGQAPRGLIGGTNKRAPWTPARFSGSLLGDKAALTLSGAQPEDEAEYYCALWYSNLWVFGGGTKLTVLG",2.8,2.54,657,0.000243,370000,293,8.07e-05,275000
